Test results published in publication PMC6099927.

Biological target: Plasmodium falciparum lactate dehydrogenase (PfLDH) (Plasmodium falciparum) (UniProt Q27743)
Test: APTEC plate capture assay
Conditions: 2x PBS binding buffer (recombinant PfLDH), 1 h, streptavidin plate coated with DNA, PBST (0.1% Tween-20) washes, absorbance 570 nm; blood: 1:1 with PBS 0.5% …

Chain of Plasmodium falciparum lactate dehydrogenase (PfLDH) (Plasmodium falciparum) (Q27743 whole entry): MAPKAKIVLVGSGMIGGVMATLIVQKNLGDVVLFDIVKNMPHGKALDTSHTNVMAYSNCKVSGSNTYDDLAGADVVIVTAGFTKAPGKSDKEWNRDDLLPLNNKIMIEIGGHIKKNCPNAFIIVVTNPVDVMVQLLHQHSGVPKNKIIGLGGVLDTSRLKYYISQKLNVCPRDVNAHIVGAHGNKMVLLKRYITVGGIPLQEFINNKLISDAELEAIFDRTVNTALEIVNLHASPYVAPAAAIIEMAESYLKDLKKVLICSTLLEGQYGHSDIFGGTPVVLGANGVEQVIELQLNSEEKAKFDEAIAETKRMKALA

GCAACAGAGCCCTATTCTGTCTCAGTCCACCGGGTTAGGAAACGCGAGTCAGT / CTGGGCGGTAGAACCATAGTGACCCAGCCGTCTACTTCCCTAACGCCTGCGTGAATAGGGCTCTGTTGC / CTGGGCGGTAGAACCATAGTGACCCAGCCGTCTACTTGATCTCAACTCAGTTACCCGGTGGACTGAGAC / CTGGGCGGTAGAACCATAGTGACCCAGCCGTCTACTTTCATCTGGGGCCTTTACTGACTCGCGTTTCCT / TAAGGCCCCAGATGATAAACCCAGGCCGGCCCT / TCGCTCGACAGAGATACTATTAGTACCAGGCCCGATAGGGCCGGCCTGGGTTT / TCGCAGGCGTTAGGGTTCGGGCCTGGTACTAAT / TACTGAGTTGAGATCTGTATCTCTGTCGAGCGA [prism with three aptamers]
Kd: 1.38 nM
